Data on 2 molecules can be found in patent US20120308566A1.

The target in test [1] is Human IL-17RA full-length expressed on the surface of cells (human) (UniProt Q96F46). The test can be described thus: cell-based or functional assay.
Another test concerns the target chimera L. The test is described as follows: Bio-Plex titration on His-captured chimera; bold cell = binding criterion not met.

B1: AMH23/AML23 (antibody, part only; not given: light variable domain, version unclear, V domains shown, part only)
VH: QVQLQESGPGLVKPSETLSLTCTVSGGSISSYYWSWIRQPAGKRLEWIGRIYPSGRTNYNPSLKSRVTMSVDTSKNQFSLKLSSVTAADTAVYYCAREAYELQLGLYYYYGMDVWGQGTPVTVSS
With B1, in test [1], the % inhibition of IL-6 production, IL-17A/HFF bioassay, supernatant 19 (incl. AMH23), 1:4 dilution was 79%; the % inhibition of IL-6 production, IL-17A/HFF bioassay, supernatant 19 (incl. AMH23), 1:32 came to 72%; the % inhibition of IL-6 production, repeat IL-17A/HFF bioassay, supernatant 19 (incl. AMH23), 1:4 was 86%; the % inhibition of IL-6 production, repeat IL-17A/HFF bioassay, supernatant 19 (incl. AMH23), 1:32 came to 76%. In test [1], this molecule displayed a % inhibition of IL-6 production, repeat IL-17A/HFF bioassay, supernatant 19 (incl. AMH23), 1:128 of 67% and a % inhibition of IL-6 production, repeat IL-17A/HFF bioassay, supernatant 19 (incl. AMH23), 1:512 of 50%.

B2: AMH26/AML26 (antibody, IgG2, V domains shown)
VH: QVQLVESGGGLVKPGGSLRLSCAASGFTFSDYYMSWIRQAPGKGLEWVSYISSSGSTIYYADSVKGRFTISRDNAKNSLYLQMNSLRAEDTAVYYCARDRTYYFGSGSYEGMDVWGQGTTVTVSS
VL: EILMTQSPATLSVSPGERATLSCRASQSVYSNLAWYQQKPGQAPRLLISGASTRATGIPARFSGSGSGTEFTLTISSLQSEDFAVYYCQQYYNWPWTFGQGTKVEIK
B2 yielded an EC50 as fitted, in a bold cell (binding criterion not met) with chimera L of 6 pM.
